Data reported in patent US20230227520A1 (MAX PLANCK GESELLSCHAFT ZUR F RDERUNG DER WISSENSCHAFTEN E V, published 2023).
Each block holds one molecule with its values, some of them ahead of it.

Key:
[1] = biological target: G-CSFR on NFS-60 cells (murine myeloblastic cell line) (mouse) (UniProt P40223); assay: cell-based or functional assay
[2] = biological target: T1, G-CSF Receptor (G-CSFR) (R&D systems 381-GR-050/CF), recombinant human (human, UniProt Q99062 25-627, limits assumed); assay: SPR, Biacore X100 single-cycle kinetics, G-CSFR amine-coupled on CM5, 1:1 binding model
T1 construct: Bought protein, amine-coupled to a CM5 chip; also called rhG-CSFR; human G-CSF receptor
T1 sequence (looked up): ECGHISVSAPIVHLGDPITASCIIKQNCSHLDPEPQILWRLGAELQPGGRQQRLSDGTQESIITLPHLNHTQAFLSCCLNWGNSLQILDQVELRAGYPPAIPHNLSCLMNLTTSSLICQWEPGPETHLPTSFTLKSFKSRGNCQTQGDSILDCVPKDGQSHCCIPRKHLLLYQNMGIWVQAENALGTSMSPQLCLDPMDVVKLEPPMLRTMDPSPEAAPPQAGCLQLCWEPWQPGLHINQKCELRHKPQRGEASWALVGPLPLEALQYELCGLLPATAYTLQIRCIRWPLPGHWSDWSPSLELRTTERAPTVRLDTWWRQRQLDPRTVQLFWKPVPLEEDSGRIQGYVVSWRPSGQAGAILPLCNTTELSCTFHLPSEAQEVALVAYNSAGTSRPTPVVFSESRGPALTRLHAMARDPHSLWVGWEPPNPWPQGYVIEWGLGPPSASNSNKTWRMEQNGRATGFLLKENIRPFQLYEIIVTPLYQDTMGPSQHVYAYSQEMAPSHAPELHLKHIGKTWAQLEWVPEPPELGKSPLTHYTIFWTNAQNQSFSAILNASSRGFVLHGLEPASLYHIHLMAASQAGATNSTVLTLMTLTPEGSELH
Protocol: To test whether the grafted epitope residues mediate binding of the designs to the G-CSF receptor, the inventors also performed SPR measurements for the Moevan and diSohair2 initial design templates (Moevan_control and diSohair_control, respectively), and no binding was observed (FIG. 20C,F).
(§1) Single-cycle kinetics experiments were performed on a Biacore X100 system (GE Healthcare Life Sciences). G-CSF Receptor (G-CSFR) (R&D systems 381-GR-050/CF) was diluted to 50 μg/ml in 10 mM acetate buffer pH 5.0 and immobilized on the surface of a CM5 sensor chip (GE Healthcare 29149604) using standard amine coupling chemistry. The designs and rhG-CSF (USP RS Filgrastim, Sigma-Aldrich 1270435) were diluted in running buffer (10 mM HEPES, 150 mM NaCl, 3.4 mM EDTA, 0.005% v/v Tween-20). Analyses were conducted at 25° C. at a flow rate of 30 μl/min. Five sequential 10-fold increasing concentrations of the sample solution (for the designs from 0.5 nM to 50 μM, and for rhG-CSF from 0.05 to 500 nM) were injected over the functionalized sensor chip surface for 180 s, followed by a 180 s dissociation with running buffer. At the end of each run, the sensor surface was regenerated with a 240 s injection of 10 mM glycine-HCl pH 2.0. Each experiment was performed two times for rhG-CSF, Boskar3, Boskar4, diSohair2, Moevan, and Moevan_t2. Association rate (ka), dissociation rate (kd), and equilibrium dissociation (Kd) constants were initially obtained by global fitting of the experimental reference-subtracted data to a 1:1 interaction model using the Biacore X100 evaluation software (v.2.0.1). To evaluate if a kinetics model that depends on double the analyte stoichiometry improves the goodness of fit to the data, the following rate integral was used: […]

[3] = biological target: T1, G-CSF Receptor (G-CSFR) (R&D systems …); assay: SPR, Biacore X100, G-CSFR amine-coupled on CM5, 2nd order kinetics model, second run
Protocol: (§2) To obtain a more detailed picture on the nature of the binding, the inventors fitted the highest concentration sensorgram curves using higher order kinetics models. […] While this higher-order interaction model better explains the data than a 1:1 binding model, a clear deviation remained for rhG-CSF sensorgrams.
(§3) Single-cycle kinetics experiments were performed on a Biacore X100 system (GE Healthcare Life Sciences). G-CSF Receptor (G-CSFR) (R&D systems 381-GR-050/CF) was diluted to 50 μg/ml in 10 mM acetate buffer pH 5.0 and immobilized on the surface of a CM5 sensor chip (GE Healthcare 29149604) using standard amine coupling chemistry. The designs and rhG-CSF (USP RS Filgrastim, Sigma-Aldrich 1270435) were diluted in running buffer (10 mM HEPES, 150 mM NaCl, 3.4 mM EDTA, 0.005% v/v Tween-20). Analyses were conducted at 25° C. at a flow rate of 30 μl/min. Five sequential 10-fold increasing concentrations of the sample solution (for the designs from 0.5 nM to 50 μM, and for rhG-CSF from 0.05 to 500 nM) were injected over the functionalized sensor chip surface for 180 s, followed by a 180 s dissociation with running buffer. At the end of each run, the sensor surface was regenerated with a 240 s injection of 10 mM glycine-HCl pH 2.0. Each experiment was performed two times for rhG-CSF, Boskar3, Boskar4, diSohair2, Moevan, and Moevan_t2. Association rate (ka), dissociation rate (kd), and equilibrium dissociation (Kd) constants were initially obtained by global fitting of the experimental reference-subtracted data to a 1:1 interaction model using the Biacore X100 evaluation software (v.2.0.1).

[4] = biological target: T1, G-CSF Receptor (G-CSFR) (R&D systems …); assay: SPR (Biacore), G-CSFR immobilised on the chip, rhG-CSF 4 nM - 64 nM as analyte, five traces with binding model fit [panel A]
[5] = biological target: T1, G-CSF Receptor (G-CSFR) (R&D systems …); assay: SPR, Biacore X100 single-cycle kinetics, G-CSFR amine-coupled on CM5, 1:1 binding model, second run
Protocol: as §1

[6] = biological target: T1, G-CSF Receptor (G-CSFR) (R&D systems …); assay: SPR, Biacore X100, G-CSFR amine-coupled on CM5, 2nd order kinetics model
Protocol: as §1

[7] = biological target: T1, G-CSF Receptor (G-CSFR) (R&D systems …); assay: SPR, Biacore X100 single-cycle kinetics, G-CSFR amine-coupled on CM5, 1:1 binding model; remark: listed apart in the source
Protocol: as §1

[8] = biological target: T1, G-CSF Receptor (G-CSFR) (R&D systems …); assay: SPR, Biacore X100 single-cycle kinetics, G-CSFR amine-coupled on CM5, 1:1 binding model; Table 10 series (Moevan/diSohair2 comparison), 1:1 binding model
[9] = biological target: T1, G-CSF Receptor (G-CSFR) (R&D systems …); assay: SPR, second-order reaction model, value as told in the text; second-order reaction model, highest concentration sensorgram
Protocol: as §2, §3

[10] = biological target: T1, G-CSF Receptor (G-CSFR) (R&D systems …); assay: SPR, 1:1 binding, value for the two runs together as told in the text; 1:1 binding, injection dilution series
Protocol: as §2
as §3, with “Association rate (ka), dissociation rate (kd), and equilibrium dissociation (Kd) constants were initially obtained by global fitting of the experimental reference-subtracted data to a 1:1 interaction model using the Biacore X100 evaluation software (v.2.0.1).” left out

[11] = biological target: T2, G-CSFR on NFS-60 cells (murine myeloblastic cell line) (mouse, UniProt P40223 26-837); assay: cell-based or functional assay
T2 sequence (looked up): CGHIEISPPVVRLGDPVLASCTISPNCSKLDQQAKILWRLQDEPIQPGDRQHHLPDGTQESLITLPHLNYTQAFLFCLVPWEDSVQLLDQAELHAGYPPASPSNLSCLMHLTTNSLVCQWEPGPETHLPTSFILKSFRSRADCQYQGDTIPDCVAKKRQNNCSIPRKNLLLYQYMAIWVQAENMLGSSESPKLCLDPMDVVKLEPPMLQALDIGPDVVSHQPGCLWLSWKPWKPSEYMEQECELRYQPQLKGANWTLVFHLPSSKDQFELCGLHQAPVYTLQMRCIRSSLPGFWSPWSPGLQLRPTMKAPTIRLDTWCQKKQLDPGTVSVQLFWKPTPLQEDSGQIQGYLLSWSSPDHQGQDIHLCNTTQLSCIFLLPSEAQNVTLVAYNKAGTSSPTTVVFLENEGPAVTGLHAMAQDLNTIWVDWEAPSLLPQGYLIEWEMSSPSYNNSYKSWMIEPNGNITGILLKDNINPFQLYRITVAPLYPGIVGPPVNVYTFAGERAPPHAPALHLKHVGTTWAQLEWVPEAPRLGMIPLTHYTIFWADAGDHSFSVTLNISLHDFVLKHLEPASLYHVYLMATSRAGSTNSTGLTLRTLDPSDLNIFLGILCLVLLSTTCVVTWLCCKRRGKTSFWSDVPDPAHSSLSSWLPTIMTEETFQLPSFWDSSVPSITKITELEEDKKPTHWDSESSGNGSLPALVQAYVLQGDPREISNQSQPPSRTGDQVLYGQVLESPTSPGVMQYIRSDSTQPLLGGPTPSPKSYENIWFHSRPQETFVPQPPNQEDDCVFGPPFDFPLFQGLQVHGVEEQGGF

NFS-60 EC50 (ng/mL), proliferation of NFS-60 cells [1]: 0.055 ng/mL
Molecule: csf_2d9q|WILD_TYPE G-CSF (from UniProt P09919 37-204) (ligand)

koff [2]: 0.00049 s⁻¹
kon [2]: 300000 M⁻¹ s⁻¹
Kd [3]: 88 nM
koff [3]: 0.00084 s⁻¹
kon [3]: 10000 M⁻¹ s⁻¹
Kd [4]: 1.4 nM
koff [4]: 0.0004 s⁻¹
kon [4]: 290000 M⁻¹ s⁻¹
Kd [5]: 0.41 nM
koff [5]: 0.00026 s⁻¹
kon [5]: 640000 M⁻¹ s⁻¹
Kd [6]: 82 nM
koff [6]: 0.0009 s⁻¹
kon [6]: 11000 M⁻¹ s⁻¹
Kd [7]: 0.36 nM
koff [7]: 0.00028 s⁻¹
kon [7]: 790000 M⁻¹ s⁻¹
Kd [8]: 1.1 nM
Kd [9]: 86 nM
B1: rhG-CSF (recombinant human G-CSF; USP RS Filgrastim, Sigma-Aldrich 1270435) (ligand)
chain: TPLGPASSLPQSFLLKCLEQVRKIQGDGAALQEKLCATYKLCHPEELVLLGHSLGIPWAPLSSCPSQALQLAGCLSQLHSGLFLYQGLLQALEGISPELGPTLDTLQLDVADFATTIWQQMEELGMAPALQPTQGAMPAFASAFQRRAGGVLVASHLQSFLEVSYRVLRHLAQP

Kd [3]: 5800 nM
koff [3]: 0.008 s⁻¹
kon [3]: 1400 M⁻¹ s⁻¹
Kd [5]: 1.7 nM
koff [5]: 0.0015 s⁻¹
kon [5]: 890000 M⁻¹ s⁻¹
Kd [6]: 6400 nM
koff [6]: 0.0095 s⁻¹
kon [6]: 1500 M⁻¹ s⁻¹
Kd [7]: 8.5 nM
koff [7]: 0.0045 s⁻¹
kon [7]: 520000 M⁻¹ s⁻¹
Kd [10]: 5.1 nM
NFS-60 EC50 (ng/mL), proliferation of NFS-60 cells [11]: 27 ng/mL
Kd [9]: 6100 nM
B2: Boskar_4 (designed binder)
chain: AALAAALAEIYKGLAEYQARLKSLEGISPELGPALDALRLDMADFATTMAQAMEEGLDSLPQSFLLKALEQIRKIQADAAALREKLAATYKGNDRAAAAVEIAAQLEAFLEKAYQILRHLAAA

Kd [3]: 2600 nM
koff [3]: 0.0058 s⁻¹
kon [3]: 2200 M⁻¹ s⁻¹
Kd [5]: 16 nM
koff [5]: 0.0019 s⁻¹
kon [5]: 120000 M⁻¹ s⁻¹
Kd [6]: 6000 nM
koff [6]: 0.0047 s⁻¹
kon [6]: 780 M⁻¹ s⁻¹
Kd [7]: 12 nM
koff [7]: 0.0015 s⁻¹
kon [7]: 130000 M⁻¹ s⁻¹
Kd [10]: 14 nM
NFS-60 EC50 (ng/mL), proliferation of NFS-60 cells [11]: 768 ng/mL
Kd [9]: 4400 nM
B3: Boskar_3 (designed binder)
chain: AALAAVLAEIYKGLAEYQARLQSLEGISPELGPALDALRLDVADFATTIAQAMEENKGPLPQSFLLKALEQIRKIQADAAALREKLAATYPSSQRAAAAVEIAAQLEAFLEKAYEILRHLAAA
